Here are results for six variants from IntAct's records for PubMed 34606829.

B1: ALK tyrosine kinase receptor (Homo sapiens), Q9UM73 (parent)
chain: MGAIGLLWLLPLLLSTAAVGSGMGTGQRAGSPAAGPPLQPREPLSYSRLQRKSLAVDFVVPSLFRVYARDLLLPPSSSELKAGRPEARGSLALDCAPLLRLLGPAPGVSWTAGSPAPAEARTLSRVLKGGSVRKLRRAKQLVLELGEEAILEGCVGPPGEAAVGLLQFNLSELFSWWIRQGEGRLRIRLMPEKKASEVGREGRLSAAIRASQPRLLFQIFGTGHSSLESPTNMPSPSPDYFTWNLTWIMKDSFPFLSHRSRYGLECSFDFPCELEYSPPLHDLRNQSWSWRRIPSEEASQMDLLDGPGAERSKEMPRGSFLLLNTSADSKHTILSPWMRSSSEHCTLAVSVHRHLQPSGRYIAQLLPHNEAAREILLMPTPGKHGWTVLQGRIGRPDNPFRVALEYISSGNRSLSAVDFFALKNCSEGTSPGSKMALQSSFTCWNGTVLQLGQACDFHQDCAQGEDESQMCRKLPVGFYCNFEDGFCGWTQGTLSPHTPQWQVRTLKDARFQDHQDHALLLSTTDVPASESATVTSATFPAPIKSSPCELRMSWLIRGVLRGNVSLVLVENKTGKEQGRMVWHVAAYEGLSLWQWMVLPLLDVSDRFWLQMVAWWGQGSRAIVAFDNISISLDCYLTISGEDKILQNTAPKSRNLFERNPNKELKPGENSPRQTPIFDPTVHWLFTTCGASGPHGPTQAQCNNAYQNSNLSVEVGSEGPLKGIQIWKVPATDTYSISGYGAAGGKGGKNTMMRSHGVSVLGIFNLEKDDMLYILVGQQGEDACPSTNQLIQKVCIGENNVIEEEIRVNRSVHEWAGGGGGGGGATYVFKMKDGVPVPLIIAAGGGGRAYGAKTDTFHPERLENNSSVLGLNGNSGAAGGGGGWNDNTSLLWAGKSLQEGATGGHSCPQAMKKWGWETRGGFGGGGGGCSSGGGGGGYIGGNAASNNDPEMDGEDGVSFISPLGILYTPALKVMEGHGEVNIKHYLNCSHCEVDECHMDPESHKVICFCDHGTVLAEDGVSCIVSPTPEPHLPLSLILSVVTSALVAALVLAFSGIMIVYRRKHQELQAMQMELQSPEYKLSKLRTSTIMTDYNPNYCFAGKTSSISDLKEVPRKNITLIRGLGHGAFGEVYEGQVSGMPNDPSPLQVAVKTLPEVCSEQDELDFLMEALIISKFNHQNIVRCIGVSLQSLPRFILLELMAGGDLKSFLRETRPRPSQPSSLAMLDLLHVARDIACGCQYLEENHFIHRDIAARNCLLTCPGPGRVAKIGDFGMARDIYRASYYRKGGCAMLPVKWMPPEAFMEGIFTSKTDTWSFGVLLWEIFSLGYMPYPSKSNQEVLEFVTSGGRMDPPKNCPGPVYRIMTQCWQHQPEDRPNFAIILERIEYCTQDPDVINTALPIEYGPLVEEEEKVPVRPKDPEGVPPLLVSQQAKREEERSPAAPPPLPTTSSGKAAKKPTAAEISVRVPRGPAVEGGHVNMAFSQSNPPSELHKVHGSRNKPTSLWNPTYGSWFTEKPTKKNNPIAKKEPHDRGNLGLEGSCTVPPNVATGRLPGASLLLEPSSLTANMKEVPLFRLRHFPCGNVNYGYQQQGLPLEAATAPGAGHYEDTILKSKNSMNQPGP
partner: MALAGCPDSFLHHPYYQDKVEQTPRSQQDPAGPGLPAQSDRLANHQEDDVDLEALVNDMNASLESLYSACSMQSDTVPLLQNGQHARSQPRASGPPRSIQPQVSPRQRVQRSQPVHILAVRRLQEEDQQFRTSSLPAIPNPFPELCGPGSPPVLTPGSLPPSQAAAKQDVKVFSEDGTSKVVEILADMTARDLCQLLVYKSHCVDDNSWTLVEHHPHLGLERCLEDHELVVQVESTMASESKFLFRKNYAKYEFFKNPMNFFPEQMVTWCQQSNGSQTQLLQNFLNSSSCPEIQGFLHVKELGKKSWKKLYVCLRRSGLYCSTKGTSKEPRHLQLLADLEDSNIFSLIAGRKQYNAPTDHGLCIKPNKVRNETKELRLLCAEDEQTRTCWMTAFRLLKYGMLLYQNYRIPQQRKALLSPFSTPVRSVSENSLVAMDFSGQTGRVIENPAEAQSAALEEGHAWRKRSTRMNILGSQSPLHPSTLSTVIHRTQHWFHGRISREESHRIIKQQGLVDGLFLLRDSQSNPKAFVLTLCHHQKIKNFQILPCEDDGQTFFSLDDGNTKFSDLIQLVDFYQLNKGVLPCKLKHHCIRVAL
B2: ALK tyrosine kinase receptor (Homo sapiens), Q9UM73 (parent)
chain: B1 chain
partner: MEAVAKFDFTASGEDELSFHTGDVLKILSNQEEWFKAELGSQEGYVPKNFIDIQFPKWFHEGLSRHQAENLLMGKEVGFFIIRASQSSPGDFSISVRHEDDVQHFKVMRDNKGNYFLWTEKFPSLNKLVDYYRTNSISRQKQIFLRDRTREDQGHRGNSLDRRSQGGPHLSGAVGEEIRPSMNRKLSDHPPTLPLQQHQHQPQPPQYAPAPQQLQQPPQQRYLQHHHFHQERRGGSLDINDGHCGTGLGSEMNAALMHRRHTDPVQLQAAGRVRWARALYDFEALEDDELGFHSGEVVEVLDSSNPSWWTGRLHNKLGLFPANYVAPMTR
B3: ALK tyrosine kinase receptor (Homo sapiens), Q9UM73 (parent)
chain: B1 chain

The variants in the first assay derive from B1. The following applies: with grb10_human GRB10, Q13322.
In the case of F1245C, the “effect of a mutation on the interaction” value is given as “increasing interaction strength”.
Turning to L1196M, the “effect of a mutation on the interaction” value is given as “increasing interaction strength”.

Variants of B2 are the subject of the next assay. The following applies: with grap2_human GRAP2, O75791.
As to L1196M, the “effect of a mutation on the interaction” value was “increasing interaction strength”.
Take I1250T: the “effect of a mutation on the interaction” value was “decreasing interaction strength”.
As for F1245C, the “effect of a mutation on the interaction” value is “increasing interaction strength”.

Another assay covers variants of B3. The following applies: with abl1_human ABL1, P00519.
Chain of abl1_human ABL1, P00519 (P00519 whole entry): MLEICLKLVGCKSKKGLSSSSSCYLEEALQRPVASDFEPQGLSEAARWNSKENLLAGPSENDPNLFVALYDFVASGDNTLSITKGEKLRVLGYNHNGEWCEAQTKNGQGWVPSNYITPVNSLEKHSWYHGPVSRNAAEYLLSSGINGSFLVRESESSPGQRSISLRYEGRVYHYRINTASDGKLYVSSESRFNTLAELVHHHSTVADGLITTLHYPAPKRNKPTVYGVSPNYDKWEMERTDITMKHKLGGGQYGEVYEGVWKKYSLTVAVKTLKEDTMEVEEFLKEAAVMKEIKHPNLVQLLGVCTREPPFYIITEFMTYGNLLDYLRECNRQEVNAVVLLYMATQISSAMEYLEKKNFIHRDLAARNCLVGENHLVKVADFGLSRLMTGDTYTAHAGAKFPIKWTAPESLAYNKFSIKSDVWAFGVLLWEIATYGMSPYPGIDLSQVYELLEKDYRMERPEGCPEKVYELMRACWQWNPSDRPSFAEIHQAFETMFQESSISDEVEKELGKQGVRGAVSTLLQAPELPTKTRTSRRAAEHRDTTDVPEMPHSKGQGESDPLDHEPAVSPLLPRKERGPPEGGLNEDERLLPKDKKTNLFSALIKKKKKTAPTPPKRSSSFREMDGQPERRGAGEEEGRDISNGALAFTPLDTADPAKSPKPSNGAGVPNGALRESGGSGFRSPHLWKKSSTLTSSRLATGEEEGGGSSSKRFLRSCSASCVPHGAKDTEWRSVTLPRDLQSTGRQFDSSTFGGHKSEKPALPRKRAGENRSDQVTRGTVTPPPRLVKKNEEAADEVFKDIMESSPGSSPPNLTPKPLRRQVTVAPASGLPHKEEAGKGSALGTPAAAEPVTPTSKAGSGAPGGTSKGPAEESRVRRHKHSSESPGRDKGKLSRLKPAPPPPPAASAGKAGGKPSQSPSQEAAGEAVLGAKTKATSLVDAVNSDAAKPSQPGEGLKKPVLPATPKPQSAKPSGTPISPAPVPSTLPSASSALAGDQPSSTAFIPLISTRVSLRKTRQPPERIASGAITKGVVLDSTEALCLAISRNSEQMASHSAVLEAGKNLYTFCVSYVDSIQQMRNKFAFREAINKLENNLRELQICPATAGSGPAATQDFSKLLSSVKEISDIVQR
For L1196M, the “effect of a mutation on the interaction” value is reported as “increasing interaction strength”.

A further assay covers variants of B3. As to conditions: with frk_human FRK.
In the case of L1196M, the “effect of a mutation on the interaction” value is reported as “increasing interaction strength”.

Variants of B3 are the subject of another assay. As to conditions: with sh24b_human SH2D4B.
L1196M: the “effect of a mutation on the interaction” value is “increasing interaction strength”.

The variants in a further assay derive from B3. As to conditions: with srms_human SRMS.
Regarding L1196M, the “effect of a mutation on the interaction” value was “increasing interaction strength”.

In another assay the parent is B3. As to conditions: with sta5b_human STAT5B.
Consider L1196M, for which the “effect of a mutation on the interaction” value is recorded as “increasing interaction strength”.

The variants in the next assay derive from B3. The following applies: with syk_human KARS1, Q15046.
Chain of syk_human KARS1, Q15046 (Q15046 whole entry, looked up): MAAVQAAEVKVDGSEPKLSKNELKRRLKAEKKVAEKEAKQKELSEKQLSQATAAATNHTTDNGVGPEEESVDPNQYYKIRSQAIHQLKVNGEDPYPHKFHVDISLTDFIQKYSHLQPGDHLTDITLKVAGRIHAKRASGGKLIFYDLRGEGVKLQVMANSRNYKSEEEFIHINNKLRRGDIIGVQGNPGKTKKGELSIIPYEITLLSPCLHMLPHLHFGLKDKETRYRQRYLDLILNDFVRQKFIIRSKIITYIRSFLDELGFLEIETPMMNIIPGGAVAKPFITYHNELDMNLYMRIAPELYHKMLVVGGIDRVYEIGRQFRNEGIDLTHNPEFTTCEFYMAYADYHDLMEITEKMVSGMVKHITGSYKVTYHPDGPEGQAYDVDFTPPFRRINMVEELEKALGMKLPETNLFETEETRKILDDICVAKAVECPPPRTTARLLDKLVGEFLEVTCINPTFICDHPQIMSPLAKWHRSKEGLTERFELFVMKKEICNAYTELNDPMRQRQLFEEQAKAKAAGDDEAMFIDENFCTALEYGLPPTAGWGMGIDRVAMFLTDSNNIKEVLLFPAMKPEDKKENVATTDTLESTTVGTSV
As to L1196M, the “effect of a mutation on the interaction” value is reported as “increasing interaction strength”.

The next assay covers variants of B3. The following applies: with crk_human CRK.
Take L1196M: the “effect of a mutation on the interaction” value is listed as “increasing interaction strength”.

A further assay covers variants of B3. The following applies: with fgr_human FGR.
As to L1196M, the “effect of a mutation on the interaction” value is “increasing interaction strength”.

A further assay covers variants of B3. As to conditions: with grb14_human GRB14, Q14449.
Chain of grb14_human GRB14, Q14449 (Q14449 whole entry): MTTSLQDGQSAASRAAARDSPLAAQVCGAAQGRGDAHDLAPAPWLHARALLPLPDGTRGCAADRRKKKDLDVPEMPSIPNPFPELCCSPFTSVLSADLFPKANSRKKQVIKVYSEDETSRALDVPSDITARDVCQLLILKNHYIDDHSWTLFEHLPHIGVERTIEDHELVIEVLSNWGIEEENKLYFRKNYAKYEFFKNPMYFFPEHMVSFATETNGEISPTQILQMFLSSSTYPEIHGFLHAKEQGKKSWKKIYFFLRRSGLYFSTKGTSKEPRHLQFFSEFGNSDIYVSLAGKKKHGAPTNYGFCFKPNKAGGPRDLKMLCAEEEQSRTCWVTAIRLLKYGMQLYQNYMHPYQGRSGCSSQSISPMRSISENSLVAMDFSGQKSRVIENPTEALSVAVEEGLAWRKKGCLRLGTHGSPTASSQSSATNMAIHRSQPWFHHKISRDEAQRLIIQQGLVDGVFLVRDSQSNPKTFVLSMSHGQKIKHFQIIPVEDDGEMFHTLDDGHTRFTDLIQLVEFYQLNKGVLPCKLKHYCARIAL
Consider L1196M, for which the “effect of a mutation on the interaction” value is listed as “increasing interaction strength”.

Variants of B3 are the subject of another assay. As to conditions: with hck_human HCK.
For L1196M, the “effect of a mutation on the interaction” value is given as “increasing interaction strength”.

The variants in a further assay derive from B3. The following applies: with lyn_human LYN.
Turning to L1196M, the “effect of a mutation on the interaction” value is “increasing interaction strength”.

Variants of B3 are the subject of the next assay. The following applies: with nck2_human NCK2, O43639.
Chain of nck2_human NCK2, O43639 (O43639 whole entry): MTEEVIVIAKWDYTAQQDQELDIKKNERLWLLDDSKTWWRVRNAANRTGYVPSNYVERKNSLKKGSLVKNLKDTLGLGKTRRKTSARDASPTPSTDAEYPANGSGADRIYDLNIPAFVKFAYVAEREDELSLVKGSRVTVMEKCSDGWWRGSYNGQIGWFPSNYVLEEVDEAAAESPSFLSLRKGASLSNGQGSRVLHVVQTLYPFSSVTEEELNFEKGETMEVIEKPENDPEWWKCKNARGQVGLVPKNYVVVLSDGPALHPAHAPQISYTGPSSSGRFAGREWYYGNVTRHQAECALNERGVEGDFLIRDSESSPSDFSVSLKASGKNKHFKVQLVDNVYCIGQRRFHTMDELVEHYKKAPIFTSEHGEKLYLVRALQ
Regarding L1196M, the “effect of a mutation on the interaction” value is reported as “increasing interaction strength”.

Variants of B3 are the subject of another assay. As to conditions: with sh2b1_human SH2B1, Q9NRF2.
In the case of L1196M, the “effect of a mutation on the interaction” value is recorded as “increasing interaction strength”.

Another assay covers variants of B3. As to conditions: with shb_human SHB.
For L1196M, the “effect of a mutation on the interaction” value is given as “increasing interaction strength”.

The variants in another assay derive from B3. As to conditions: with socs3_human SOCS3, O14543.
Chain of socs3_human SOCS3, O14543 (O14543 whole entry): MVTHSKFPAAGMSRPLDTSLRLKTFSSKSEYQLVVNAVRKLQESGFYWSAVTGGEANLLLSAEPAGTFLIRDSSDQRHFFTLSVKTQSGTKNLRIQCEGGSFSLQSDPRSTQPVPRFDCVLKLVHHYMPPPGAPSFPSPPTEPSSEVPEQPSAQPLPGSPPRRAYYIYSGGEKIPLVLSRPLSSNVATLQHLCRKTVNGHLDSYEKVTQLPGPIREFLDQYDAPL
On to L1196M, for which the “effect of a mutation on the interaction” value is “increasing interaction strength”.

Variants of B3 are the subject of the next assay. The following applies: with stat2_human STAT2, P52630.
Chain of stat2_human STAT2, P52630 (P52630 whole entry): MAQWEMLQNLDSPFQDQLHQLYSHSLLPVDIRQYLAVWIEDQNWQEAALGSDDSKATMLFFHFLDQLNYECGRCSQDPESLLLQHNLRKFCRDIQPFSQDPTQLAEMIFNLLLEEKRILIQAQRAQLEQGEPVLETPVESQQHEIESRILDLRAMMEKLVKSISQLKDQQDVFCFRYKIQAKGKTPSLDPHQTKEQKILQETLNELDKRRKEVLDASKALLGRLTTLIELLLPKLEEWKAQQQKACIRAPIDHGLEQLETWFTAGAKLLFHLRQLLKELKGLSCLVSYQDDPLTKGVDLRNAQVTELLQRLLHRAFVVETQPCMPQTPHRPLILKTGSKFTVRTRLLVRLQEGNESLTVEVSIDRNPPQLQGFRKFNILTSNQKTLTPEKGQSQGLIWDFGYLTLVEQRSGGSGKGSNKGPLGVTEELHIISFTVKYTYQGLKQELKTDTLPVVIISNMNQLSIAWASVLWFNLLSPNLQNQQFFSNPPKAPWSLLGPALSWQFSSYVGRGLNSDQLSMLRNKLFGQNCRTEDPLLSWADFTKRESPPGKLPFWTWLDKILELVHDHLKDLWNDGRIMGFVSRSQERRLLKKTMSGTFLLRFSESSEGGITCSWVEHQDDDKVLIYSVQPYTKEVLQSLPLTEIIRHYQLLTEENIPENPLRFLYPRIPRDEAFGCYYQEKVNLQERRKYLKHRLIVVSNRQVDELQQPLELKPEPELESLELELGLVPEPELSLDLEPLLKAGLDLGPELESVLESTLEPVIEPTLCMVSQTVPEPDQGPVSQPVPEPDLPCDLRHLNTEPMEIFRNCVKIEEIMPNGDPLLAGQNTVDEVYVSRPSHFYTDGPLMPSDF
On to L1196M, for which the “effect of a mutation on the interaction” value is “increasing interaction strength”.

The variants in a further assay derive from B3. As to conditions: with zap70_human ZAP70, P43403.
Chain of zap70_human ZAP70, P43403 (P43403 whole entry): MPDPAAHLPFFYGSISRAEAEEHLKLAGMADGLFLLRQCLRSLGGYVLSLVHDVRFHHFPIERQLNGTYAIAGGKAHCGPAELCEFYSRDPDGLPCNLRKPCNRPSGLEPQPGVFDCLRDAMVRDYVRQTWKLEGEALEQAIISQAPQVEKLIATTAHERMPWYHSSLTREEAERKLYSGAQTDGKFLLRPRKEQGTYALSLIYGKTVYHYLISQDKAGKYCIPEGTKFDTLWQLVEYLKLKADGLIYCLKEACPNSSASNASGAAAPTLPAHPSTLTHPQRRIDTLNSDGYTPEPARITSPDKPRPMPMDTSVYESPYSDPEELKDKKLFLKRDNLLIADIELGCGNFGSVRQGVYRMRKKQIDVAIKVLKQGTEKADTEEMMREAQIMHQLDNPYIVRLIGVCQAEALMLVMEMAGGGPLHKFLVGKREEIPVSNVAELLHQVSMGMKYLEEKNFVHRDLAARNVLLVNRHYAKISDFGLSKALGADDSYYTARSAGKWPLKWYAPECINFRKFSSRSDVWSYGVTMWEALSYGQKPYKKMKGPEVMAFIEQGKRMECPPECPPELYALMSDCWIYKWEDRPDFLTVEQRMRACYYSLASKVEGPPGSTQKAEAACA
For L1196M, the “effect of a mutation on the interaction” value is recorded as “increasing interaction strength”.

A further assay covers variants of B3. The following applies: with rack1_human RACK1, P63244.
Consider L1196M, for which the “effect of a mutation on the interaction” value was “increasing interaction strength”.
